Results from article PMC13178787 (Nature, 2024).

B1: β-sarcoglycan (natural protein, mouse (endogenous in skeletal muscle), UniProt P82349 1-320, looked up)
chain: MAAAAAAAAATEQQGSNGPVKKSMREKAVERRNVNKEHNSNFKAGYIPIDEDRLHKTGLRGRKGNLAICVIVLLFILAVINLLITLVIWAVIRIGPNGCDSMEFHESGLLRFKQVSDMGVIHPLYKSTVGGRRNENLVITGNNQPIVFQQGTTKLSVEKNKTSITSDIGMQFFDPRTHNILFSTDYETHEFHLPSGVKSLNVQKASTERITSNATSDLNIKVDGRAIVRGNEGVFIMGKTIEFHMGGDVELKAENSIILNGTVMVSPTRLPSSSSGDQSGSGDWVRYKLCMCADGTLFKVQVTGHNMGCQVSDNPCGNTH
modifications: glycosylated at N160, N213, N260
B2: β-dystroglycan (natural protein, mouse (endogenous in skeletal muscle), UniProt Q62165 652-893, looked up)
chain: SIVVEWTNNTLPLEPCPKEQIIGLSRRIADENGKPRPAFSNALEPDFKALSIAVTGSGSCRHLQFIPVAPPSPGSSAAPATEVPDRDPEKSSEDDVYLHTVIPAVVVAAILLIAGIIAMICYRKKRKGKLTLEDQATFIKKGVPIIFADELDDSKPPPSSSMPLILQEEKAPLPPPEYPNQSMPETTPLNQDTVGEYTPLRDEDPNAPPYQPPPPFTAPMEGKGSRPKNMTPYRSPPPYVPP
modifications: glycosylated at N659

Tests used:
β-sarcoglycan = molecular target: B1; test: cryo-EM structure
β-dystroglycan = molecular target: B2; test: cryo-EM structure
dystrophin = dystrophin (mouse (endogenous in skeletal muscle), UniProt P11531 1-3678); test: cryo-EM structure
[1] = molecular target: T1, GST-tagged dystrophin (3049–3299) (mouse, UniProt P11531 3049-3299); test: SEC
T1 sequence (looked up): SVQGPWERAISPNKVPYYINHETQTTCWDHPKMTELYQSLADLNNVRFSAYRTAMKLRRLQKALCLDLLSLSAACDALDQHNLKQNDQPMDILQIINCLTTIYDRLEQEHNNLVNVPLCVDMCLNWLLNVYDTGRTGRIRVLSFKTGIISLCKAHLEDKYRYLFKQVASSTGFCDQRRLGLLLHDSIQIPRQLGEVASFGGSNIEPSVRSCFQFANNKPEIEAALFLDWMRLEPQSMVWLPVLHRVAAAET

Chain of dystrophin (P11531 whole entry): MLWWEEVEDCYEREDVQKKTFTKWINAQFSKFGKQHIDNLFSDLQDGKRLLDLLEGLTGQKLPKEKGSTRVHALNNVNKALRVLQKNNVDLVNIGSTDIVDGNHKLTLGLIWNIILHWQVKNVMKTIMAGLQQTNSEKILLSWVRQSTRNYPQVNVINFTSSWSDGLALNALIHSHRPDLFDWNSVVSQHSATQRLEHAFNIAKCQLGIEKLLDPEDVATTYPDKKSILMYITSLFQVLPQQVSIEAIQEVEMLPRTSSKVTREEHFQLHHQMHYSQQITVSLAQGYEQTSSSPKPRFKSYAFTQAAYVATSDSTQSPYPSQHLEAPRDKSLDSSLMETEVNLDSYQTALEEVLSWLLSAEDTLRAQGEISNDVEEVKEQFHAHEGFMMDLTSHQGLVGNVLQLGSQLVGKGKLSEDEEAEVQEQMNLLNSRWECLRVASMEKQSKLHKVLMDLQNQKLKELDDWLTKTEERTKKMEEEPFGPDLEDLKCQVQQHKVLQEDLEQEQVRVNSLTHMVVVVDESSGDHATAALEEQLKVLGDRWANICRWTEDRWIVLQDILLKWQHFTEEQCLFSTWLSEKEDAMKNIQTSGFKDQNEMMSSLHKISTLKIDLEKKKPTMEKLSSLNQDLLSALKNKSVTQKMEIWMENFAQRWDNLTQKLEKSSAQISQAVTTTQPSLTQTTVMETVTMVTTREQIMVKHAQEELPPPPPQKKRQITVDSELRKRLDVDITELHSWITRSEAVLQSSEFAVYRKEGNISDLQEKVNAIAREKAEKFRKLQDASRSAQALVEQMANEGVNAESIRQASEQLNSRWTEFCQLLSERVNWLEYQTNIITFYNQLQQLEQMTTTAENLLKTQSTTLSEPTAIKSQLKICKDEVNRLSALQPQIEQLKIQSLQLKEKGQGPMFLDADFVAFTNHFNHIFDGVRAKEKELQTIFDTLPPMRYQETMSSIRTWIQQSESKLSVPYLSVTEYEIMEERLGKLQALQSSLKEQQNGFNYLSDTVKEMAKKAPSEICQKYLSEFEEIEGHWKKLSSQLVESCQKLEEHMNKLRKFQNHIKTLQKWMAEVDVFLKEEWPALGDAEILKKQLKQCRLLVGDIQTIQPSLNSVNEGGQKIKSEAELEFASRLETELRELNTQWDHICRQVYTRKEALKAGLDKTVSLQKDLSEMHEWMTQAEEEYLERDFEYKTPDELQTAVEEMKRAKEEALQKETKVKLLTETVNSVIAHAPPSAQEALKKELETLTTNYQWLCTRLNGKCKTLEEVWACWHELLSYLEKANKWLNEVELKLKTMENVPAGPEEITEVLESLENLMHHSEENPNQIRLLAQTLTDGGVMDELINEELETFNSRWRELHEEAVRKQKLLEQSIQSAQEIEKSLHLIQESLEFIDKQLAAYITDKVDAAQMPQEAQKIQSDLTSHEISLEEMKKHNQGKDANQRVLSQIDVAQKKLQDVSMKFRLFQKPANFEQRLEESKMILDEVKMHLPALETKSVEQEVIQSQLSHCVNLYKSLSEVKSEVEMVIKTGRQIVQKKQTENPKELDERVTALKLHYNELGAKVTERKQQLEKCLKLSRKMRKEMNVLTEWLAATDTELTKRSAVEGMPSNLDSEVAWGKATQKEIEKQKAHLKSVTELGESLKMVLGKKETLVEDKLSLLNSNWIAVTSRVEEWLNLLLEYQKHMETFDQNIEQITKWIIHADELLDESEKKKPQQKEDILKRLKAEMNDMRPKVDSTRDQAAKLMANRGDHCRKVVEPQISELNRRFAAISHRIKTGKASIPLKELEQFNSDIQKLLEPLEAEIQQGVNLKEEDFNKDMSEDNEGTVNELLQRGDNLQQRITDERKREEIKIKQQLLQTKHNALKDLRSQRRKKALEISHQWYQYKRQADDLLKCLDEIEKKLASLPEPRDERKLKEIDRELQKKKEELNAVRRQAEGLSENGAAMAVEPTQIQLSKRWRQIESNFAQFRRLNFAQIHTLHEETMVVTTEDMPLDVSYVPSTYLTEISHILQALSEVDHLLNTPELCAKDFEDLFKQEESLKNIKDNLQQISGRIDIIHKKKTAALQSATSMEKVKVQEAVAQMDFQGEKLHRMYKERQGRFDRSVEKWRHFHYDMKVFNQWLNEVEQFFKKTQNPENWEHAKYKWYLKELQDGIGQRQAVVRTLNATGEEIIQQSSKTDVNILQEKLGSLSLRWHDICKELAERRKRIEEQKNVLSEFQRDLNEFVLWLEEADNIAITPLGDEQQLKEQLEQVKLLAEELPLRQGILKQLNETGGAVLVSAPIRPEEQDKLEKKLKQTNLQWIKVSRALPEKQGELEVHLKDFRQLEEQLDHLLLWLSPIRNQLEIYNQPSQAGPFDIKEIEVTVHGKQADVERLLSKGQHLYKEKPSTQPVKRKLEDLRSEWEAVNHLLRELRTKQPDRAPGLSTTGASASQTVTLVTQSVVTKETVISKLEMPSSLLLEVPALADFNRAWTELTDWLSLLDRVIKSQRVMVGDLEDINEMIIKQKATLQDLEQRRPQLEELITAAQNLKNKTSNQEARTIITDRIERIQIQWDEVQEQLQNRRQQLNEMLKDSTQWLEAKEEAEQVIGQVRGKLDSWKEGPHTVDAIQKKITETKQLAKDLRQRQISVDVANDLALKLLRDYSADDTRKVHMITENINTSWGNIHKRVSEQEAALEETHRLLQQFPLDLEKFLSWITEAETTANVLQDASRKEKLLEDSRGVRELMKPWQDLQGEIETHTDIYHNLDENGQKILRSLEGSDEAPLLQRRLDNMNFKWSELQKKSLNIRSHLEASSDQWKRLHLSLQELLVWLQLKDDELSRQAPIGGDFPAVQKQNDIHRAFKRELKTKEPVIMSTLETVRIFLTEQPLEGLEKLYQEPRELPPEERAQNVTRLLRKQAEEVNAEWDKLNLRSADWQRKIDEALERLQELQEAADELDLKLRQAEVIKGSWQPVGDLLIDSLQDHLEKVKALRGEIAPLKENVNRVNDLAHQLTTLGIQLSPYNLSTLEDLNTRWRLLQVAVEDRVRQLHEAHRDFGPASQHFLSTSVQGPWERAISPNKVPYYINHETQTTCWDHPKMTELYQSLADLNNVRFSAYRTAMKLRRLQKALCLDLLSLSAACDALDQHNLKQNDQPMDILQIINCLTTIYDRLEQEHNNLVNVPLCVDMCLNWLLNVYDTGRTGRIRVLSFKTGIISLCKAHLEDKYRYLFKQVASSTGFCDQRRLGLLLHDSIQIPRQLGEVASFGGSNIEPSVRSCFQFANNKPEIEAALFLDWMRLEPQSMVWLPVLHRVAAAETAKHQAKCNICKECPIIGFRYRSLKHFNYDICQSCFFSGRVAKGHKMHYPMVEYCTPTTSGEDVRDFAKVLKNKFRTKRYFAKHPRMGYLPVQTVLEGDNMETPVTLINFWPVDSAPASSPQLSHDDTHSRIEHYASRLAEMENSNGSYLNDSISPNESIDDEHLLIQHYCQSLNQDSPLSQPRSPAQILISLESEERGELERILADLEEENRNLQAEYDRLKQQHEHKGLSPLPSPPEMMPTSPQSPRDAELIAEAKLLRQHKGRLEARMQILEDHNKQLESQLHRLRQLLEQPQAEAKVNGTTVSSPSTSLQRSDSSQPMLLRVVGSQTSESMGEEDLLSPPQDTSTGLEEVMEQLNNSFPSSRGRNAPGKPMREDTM

Binder	binding result (dystrophin)	also measured
δ-sarcoglycan (natural protein, mouse (endogenous in skeletal muscle), UniProt P82347 1-289, looked up, glycosylated at N108) MPQEQYSHHRSTMPSSEGPHIYKVGIYGWRKRCLYFFVLLLMILILVNLAMTIWILKVMNFTIDGMGNLRITEKGLKLEGDSEFLQPLYAKEIKSRPGNALYFKSARNVTVNILNDQTKVLTQLVTGPKAVEAYGKRFEVKTVSGKLLFSADDSEVVVGAERLRVLGAEGTVFPKSIETPNVRADPFKELRLESPTRSLVMEAPKGVEINAEAGNMEAICRSELRLESKDGEIKLDAAKIKLPRLPRGSYTPTGTRQKVFEVCVCANGRLFLSQAGTGSTCQINTSVCL	–	binding result (β-sarcoglycan): binds
sarcospan (natural protein, mouse (endogenous in skeletal muscle), UniProt Q62147 1-216, looked up) MGRKPSPRAQELPEEEARTCCGCRFPLLLALLQLALGIAVTVLGFLMASISPSLLVRDTPFWAGSIVCVVAYLGLFMLCVSYQVDERTCVQFSMKVFYFLLSALGLMVCMLAVAFAAHHYSLLAQFTCETSLDSCQCKLPSSEPLSRAFVYRDVTDCTSVTGTFKLFLIIQMVLNLVCGLVCLLACFVMWKHRYQVFYVGVGLRSLMASDGQLPKA	–	binding result (β-dystroglycan): binds
B1	binds	–
B2	binds	–
dystrobrevin (natural protein, mouse (endogenous in skeletal muscle), UniProt Q9D2N4 1-746, looked up) MIEDSGKRGNTMAERRQLFAEMRAQDLDRIRLSTYRTACKLRFVQKKCNLHLVDIWNVIEALRENALNNLDPNIELNVARLEAVLSTIFYQLNKRMPTTHQIHVEQSISLLLNFLLAAFDPEGHGKISVFAVKMALATLCGGKIMDKLRYIFSMISDSSGVMVYGRYDQFLREVLKLPTAVFEGPSFGYTEQSARSCFSQQKKVTLNGFLDTLMSDPPPQCLVWLPLLHRLANVENVFHPVECSYCHSESMMGFRYRCQQCHNYQLCQDCFWRGHAGGSHSNQHQMKEYTSWKSPAKKLTNALSKSLSCASSREPLHPMFPDQPEKPLNLAHIVPPRPVTSMNDTLFSHSVPSSGSPFITRSSPPKDSEVEQNKMLARAAPAFLKGRGIQYSLNVADRLADEHVLIGLYVNMLRNDPPCMLESSNRLDEEHRLIARYAARLAAESSSSQPTQQRSAPDISFTIDANKQQRQLIAELENKNREILQEIQRLRVEHEQASQPTPEKAQQNPTLLAELRLLRQRKDELEQRMSALQESRRELMVQLEGLMKLLKEEELKQGTQGASSPRSSPSHTISRPIPMPIRSASACPTPTHTPQDSLTGVGGDVQEAFAQSSRRNLRSDLLVAADSITNTMSSLVKELNSEVASETESTVDSEFSRPQFEDLAPSPTSEKAFLAQIHSRKPGYIHGGAASTTHGDMVPEDGDPYTQPEDGNYENESVRQLENELQLEEYLKQKLQDEAYQVSLQG	binds	–
6×His-tagged dystrobrevin (1–237) (domain or fragment, mouse, UniProt Q9D2N4 1-237, looked up) MIEDSGKRGNTMAERRQLFAEMRAQDLDRIRLSTYRTACKLRFVQKKCNLHLVDIWNVIEALRENALNNLDPNIELNVARLEAVLSTIFYQLNKRMPTTHQIHVEQSISLLLNFLLAAFDPEGHGKISVFAVKMALATLCGGKIMDKLRYIFSMISDSSGVMVYGRYDQFLREVLKLPTAVFEGPSFGYTEQSARSCFSQQKKVTLNGFLDTLMSDPPPQCLVWLPLLHRLANVENV	–	binding result [1]: binds
